US20220411487A1 (Regeneron, published 2022)

T1: full length human TMPRSS6 with a C-terminal triple myc tag on HEK293.hHJV cells (HEK293.hHJV/3xMyc.hTMPRSS6) (human, UniProt Q8IU80 1-811)
T1 sequence: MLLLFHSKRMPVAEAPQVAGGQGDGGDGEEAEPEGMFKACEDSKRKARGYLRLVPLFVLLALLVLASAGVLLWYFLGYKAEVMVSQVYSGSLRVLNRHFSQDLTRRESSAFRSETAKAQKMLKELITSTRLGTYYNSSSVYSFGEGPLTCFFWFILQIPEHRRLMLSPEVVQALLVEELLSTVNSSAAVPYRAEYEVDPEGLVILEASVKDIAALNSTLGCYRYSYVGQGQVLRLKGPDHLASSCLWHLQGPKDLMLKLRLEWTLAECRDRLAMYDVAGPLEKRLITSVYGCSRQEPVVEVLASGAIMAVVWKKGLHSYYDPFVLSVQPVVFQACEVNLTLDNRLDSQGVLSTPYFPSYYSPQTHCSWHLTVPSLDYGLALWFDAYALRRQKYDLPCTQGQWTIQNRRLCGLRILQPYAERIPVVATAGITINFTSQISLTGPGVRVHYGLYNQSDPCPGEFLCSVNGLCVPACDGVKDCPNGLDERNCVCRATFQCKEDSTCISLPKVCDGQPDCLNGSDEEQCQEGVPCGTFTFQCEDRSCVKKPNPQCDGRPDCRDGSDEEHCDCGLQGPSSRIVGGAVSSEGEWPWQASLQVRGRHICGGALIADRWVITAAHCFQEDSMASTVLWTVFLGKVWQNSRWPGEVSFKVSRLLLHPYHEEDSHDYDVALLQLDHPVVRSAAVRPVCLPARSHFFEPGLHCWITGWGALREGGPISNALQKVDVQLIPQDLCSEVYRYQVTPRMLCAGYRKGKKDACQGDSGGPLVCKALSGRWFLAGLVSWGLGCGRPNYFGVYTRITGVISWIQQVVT

T2: mfTMPRSS6_S751A-MMH (Macaca fascicularis, UniProt Q8IU80 77-811 (human entry))
T2 construct: also called REGN5977; Macaca fascicularis TMPRSS6 extracellular domain with a S751A mutation and a C-terminal myc-myc-hexahistidine tag
T2 chain: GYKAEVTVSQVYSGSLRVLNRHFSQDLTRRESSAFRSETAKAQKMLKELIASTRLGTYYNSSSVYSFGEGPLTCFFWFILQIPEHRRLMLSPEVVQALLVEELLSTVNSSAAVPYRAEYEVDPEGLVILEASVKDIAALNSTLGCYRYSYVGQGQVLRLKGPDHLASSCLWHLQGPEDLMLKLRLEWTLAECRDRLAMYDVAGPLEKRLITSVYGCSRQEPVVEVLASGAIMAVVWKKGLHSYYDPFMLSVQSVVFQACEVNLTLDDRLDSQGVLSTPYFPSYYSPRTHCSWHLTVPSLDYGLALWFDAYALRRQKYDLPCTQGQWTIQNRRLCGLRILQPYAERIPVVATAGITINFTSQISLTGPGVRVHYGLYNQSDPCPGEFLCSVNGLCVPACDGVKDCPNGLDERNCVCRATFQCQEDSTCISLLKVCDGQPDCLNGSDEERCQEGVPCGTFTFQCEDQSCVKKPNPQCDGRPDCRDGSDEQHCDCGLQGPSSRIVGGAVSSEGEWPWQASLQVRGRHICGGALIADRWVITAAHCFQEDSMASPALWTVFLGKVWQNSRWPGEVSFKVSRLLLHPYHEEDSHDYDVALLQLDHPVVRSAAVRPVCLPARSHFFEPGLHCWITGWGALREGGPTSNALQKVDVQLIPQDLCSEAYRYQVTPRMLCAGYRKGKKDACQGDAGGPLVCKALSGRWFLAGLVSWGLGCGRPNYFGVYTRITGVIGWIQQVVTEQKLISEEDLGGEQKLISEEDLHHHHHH


Key:
[1] = target: T1, full length human TMPRSS6 with a …; assay: cell-based or functional assay
[2] = target: T2, mfTMPRSS6_S751A-MMH; assay: SPR, mAb captured via anti-hFc, 25 C
Method: The equilibrium dissociation constant (KD) for TMPRSS6 binding to different TMPRSS6 monoclonal antibodies (mAbs) was determined using a real-time surface plasmon resonance biosensor using a Biacore 4000 instrument. All binding studies were performed in 10 mM HEPES, 150 mM NaCl, 3 mM EDTA, and 0.05% v/v Surfactant Tween-20, pH 7.4 (HBS-ET) running buffer at 25° C. and 37° C. The Biacore CM5 sensor chip surface was first derivatized by amine coupling with a human Fc specific mouse mAb to capture different TMPRSS6 mAbs. […] Different concentrations (100 nM to 3.7 nM, 3-fold serial dilution) of the TMPRSS6 reagent proteins prepared in HBS-EP running buffer were injected over the TMPRSS6 mAb captured surface for 150 seconds at a flow rate of 30 μL/min and their dissociation in HBS-ET running buffer was monitored for 10 minutes. At the end of each cycle, the TMPRSS6 mAb captured surface was regenerated using a 12 second injection of 20 mM phosphoric acid.
The association rate (kₐ) and dissociation rate (kd) were determined by fitting the real-time binding sensorgrams to a 1:1 binding model with mass transport limitation using Scrubber 2.0 (BioLogic Software) curve-fitting software. Binding dissociation equilibrium constant (KD) and dissociative half-life (t½) were calculated from the kinetic rates as: […]

Row | Geometric Mean Fluorescence Intensity of cell surface hHJV, 50 nM mAb [1] | Median Fluorescence Intensity of cell surface hHJV, 50 nM mAb [1] | 100 nM Ag Bound [2] | Kd [2] | koff [2] | kon [2] | t½ [2] | Binder
1 | 30700 | 40100 | 185 RU | 110 pM | 7.23e-05 s⁻¹ | 660000 M⁻¹ s⁻¹ | 2.67 h | REGN7999 (antibody, human IgG4 S228P, kappa, V domains shown, fully human; human IgG4 Fc with hinge S108P; also called mAb41450) VH: EVQLVESGGGLVQPGGSLRLSCAASGFTFSSYAMTWVRQAPGKGLEWVSAISGSDTSTYYADSVKGRFTISRDNSKNTLFLQMNSLRAEDTAVYYCAKHQDYDFSYYYSAMDVWGQGTTVTVSS VL: DIQMTQSPSSLSASVGDRVIITCRASQDFNSWLAWYQQKPGKAPKLLIYAASSLQSGVPSRFSGSGSGTDFTLTISSLQPEDFATYYCQQTDSFPFTFGPGTKVDIKR
2 | 55500 | 77800 | 203 RU | 65 pM | 5.79e-05 s⁻¹ | 891000 M⁻¹ s⁻¹ | 3.32 h | REGN8023 (antibody, human IgG4 S228P, kappa, V domains shown, fully human; human IgG4 Fc with hinge S108P; also called mAb37699) VH: EVQLVESGGGLVKPGGSLRISCAASGFIFVDYAMHWVRQAPGKGLEWVSGISWNSGSIGYADSVKGRFTISRDNAKKSLYLQMSGLRPEDTALYYCVKSGFYYVRSYFDNWGQGTLVTVSS VL: DIVMTQSPLSLPVTPGEPASISCRSSQSLLDSDDGNTYLDWYLRKPGQSPQLLIYTLSYRASGVPDRFSGSGSGTDFTLKISRVEADDVGVYYCMQRIEFPLTFGGGTKVEIKR
3 | 40900 | 56700 | 188 RU | 7180 pM | 0.00192 s⁻¹ | 268000 M⁻¹ s⁻¹ | 0.1 h | REGN7974 (antibody, human IgG4 S228P, kappa, V domains shown, fully human; human IgG4 Fc with hinge S108P; also called mAb41422) VH: EVQLVESGGGLVQPGRSLRLSCIASGFNFGDYGMSWVRQAPGKGLEWVGFIRSKAYGGTTEYAASVKGRFTISRDDSKSIAYLQMNSLKTEDAAMYYCSRDYYDILTGYYGDYWGQGTLVTVSS VL: not shown
4 | 47900 | 67500 | 92 RU | 435 pM | 0.000182 s⁻¹ | 419000 M⁻¹ s⁻¹ | 1.05 h | REGN7969 (antibody, human IgG4 S228P, kappa, V domains shown, fully human; human IgG4 Fc with hinge S108P; also called mAb37746) VH: QVQLVESGGGVVQPGRSLRLSCAASGFTFNNYGMHWVRQAPGKGLEWVAIISYDGSNEYYSDSVKGRFTISRDNSKNTLYLQMNSLRAEDTAVYYCARDQDYGGNLFHYWGQGTLVTVSS VL: not shown
5 | 61800 | 84400 | 109 RU | 283 pM | 0.000138 s⁻¹ | 487000 M⁻¹ s⁻¹ | 1.4 h | REGN7971 (antibody, human IgG4 S228P, kappa, V domains shown, fully human; human IgG4 Fc with hinge S108P; also called mAb37763) VH: QVQLVESGGGVVQPGRSLRLSCAASGFTFSTYGMHWVRQAPGKGLEWVAIISYDGSNDYYLDSVKGRFTISRDNSKNTLYLQMNNLRAEDTAVYYCAKDQGYGGNLFASWGQGTLVTVSS VL: not shown
6 | 49000 | 63800 | 155 RU | 3090 pM | 0.000697 s⁻¹ | 225000 M⁻¹ s⁻¹ | 0.283 h | REGN7977 (antibody, V domains shown, fully human; human IgG4 Fc with hinge S108P; also called mAb41465) VH: EVQLVESGGGLVKPGGSLRVSCAASGVTFSNVWMSWVRQVPGKGLEWVGRIKSKTDGGTTDYAAPVKGRFTISKDDSKNTLFLQMNSLKTEDTAVYYCTTETGDFWSGYYPRFQHWGQGTLVTVSS VL: DIQMTQSPSSLSASVGDRVTITCRASQYISTYLNWYQQKPGKAPSLLIYAASSLQSGVPSRFSGSGSGTDFTLTISSLQPEDFASYSCQQSYSTPPYTFGQGTKLEIKR
